In paper PMC9671094 (Immunity, 2022) one finds Kd data, which are given here for 2 molecules.

This assay concerns the target T1, BG505 SOSIP.D664 (HIV-1 isolate BG505 (clade A), stabilised).
T1 construct: also called BG505.SOSIP.664; source: HEK 293F, co-transfected with furin, purified (HisTrap, SEC); copies: 3 + 3
Put plainly: SPR; IgG captured as ligand by anti-human IgG (Human Antibody Capture Kit) on a GLC chip, ProteOn XPR36; trimer as analyte; 1x HBS-EP+ pH 7.4 with 1 mg/ml BSA; 1:1 binding model; highest SOSIP concentration 5 uM or 10 uM. The settings on record: both partners purified. A general note: SPR reads the build-up and loss of mass on a sensor chip optically.

B1: PG9.iGL (antibody, V domains shown)
VH: QVQLVESGGGVVQPGRSLRLSCAASGFTFSSYGMHWVRQAPGKGLEWVAVISYDGSNKYYADSVKGRFTISRDNSKNTLYLQMNSLRAEDTAVYYCAREAGGPDYRNGYNYYDFWSGYYYYYYMDVWGKGTTVTVSS
VL: QSALTQPASVSGSPGQSITISCTGTSSDVGGYNYVSWYQQHPGKAPKLMIYEVSNRPSGVSNRFSGSKSGNTASLTISGLQAEDEADYYCSSYTSSSTVVFGGGTKLTVL
The Kd is the free concentration of one partner at which half of the binding sites on the other are occupied at equilibrium, for simple one-to-one binding. With B1, the Kd was > 5 µM.

B2: PCT64.13C (antibody, V domains shown)
VH: EVQLVESGGGLVKPGGSLRLSCAASGFTFTNAWLDWVRQAPGKGLEWVGRIKSKTDGGTTDHAAPVKGRFTISRDDSKNTVYLQMNSLKIEDTAVYYCTTGVETYDFWSGYDDHYYDYYFKDVWGKGTTVTVSS
VL: EIVLTQSPGTLSLSPGERATLSCRASQSVSNNYLAWYQQKPGQAPRLLIYGASSRATGIPDRFSGSGSGTDFTLTISRLEPEDFAVYYCQQSARSFTFGPGTKVDIK
B2: the Kd is > 5 µM.
